Reference: paper PMC3913770, “Characterization of New Polyol/H^+ Symporters in Debaryomyces hansenii” (PLoS ONE, 2014)

Key:
[1] = molecular target: T1, DhSyl1 (Debaryomyces hansenii, UniProt B5RT81); assay: inhibition of [U-14C] sorbitol uptake; type: cell-based; details: 1.5 mM [U-14C] sorbitol, 20 mM mannitol
T1 construct: gene DEHA2C05896g; full-length ORF (649 aa) without stop, C-terminal GFP, plasmid pUG35, in S. cerevisiae YSH 1172 (strain MLY9); any CUG codon is read as Leu in the host
T1 sequence (B5RT81 1-649): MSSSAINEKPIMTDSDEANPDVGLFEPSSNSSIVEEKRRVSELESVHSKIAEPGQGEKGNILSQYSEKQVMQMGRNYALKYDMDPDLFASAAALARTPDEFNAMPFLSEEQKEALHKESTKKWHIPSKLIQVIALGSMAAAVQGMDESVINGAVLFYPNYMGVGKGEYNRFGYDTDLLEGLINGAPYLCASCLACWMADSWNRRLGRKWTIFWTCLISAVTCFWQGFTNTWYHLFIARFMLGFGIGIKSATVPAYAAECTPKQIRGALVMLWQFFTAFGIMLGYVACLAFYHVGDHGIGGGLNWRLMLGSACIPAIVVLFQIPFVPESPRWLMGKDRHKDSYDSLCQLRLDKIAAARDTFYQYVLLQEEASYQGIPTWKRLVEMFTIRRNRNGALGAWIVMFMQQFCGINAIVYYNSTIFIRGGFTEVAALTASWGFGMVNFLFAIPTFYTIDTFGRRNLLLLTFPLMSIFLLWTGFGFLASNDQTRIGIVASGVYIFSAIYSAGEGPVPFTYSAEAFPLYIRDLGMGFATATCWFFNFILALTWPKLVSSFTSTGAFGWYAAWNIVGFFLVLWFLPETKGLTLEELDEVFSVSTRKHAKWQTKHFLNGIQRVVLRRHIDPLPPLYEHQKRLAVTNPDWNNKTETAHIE

[2] = molecular target: T2, DhSgl1 (Debaryomyces hansenii, UniProt Q6BN62); assay: initial extracellular alkalinization (H+ symport) in unbuffered yeast cell suspension, Michaelis-Menten fit; type: cell-based; details: pH 5, proton symport, one H+ per polyol assumed, maltose-grown S. cerevisiae cells
T2 construct: gene DEHA2E24310g; full-length ORF (626 aa) without stop, C-terminal GFP, plasmid pUG35, in S. cerevisiae YSH 1172 (strain MLY22)
T2 sequence (Q6BN62 entry or part of it): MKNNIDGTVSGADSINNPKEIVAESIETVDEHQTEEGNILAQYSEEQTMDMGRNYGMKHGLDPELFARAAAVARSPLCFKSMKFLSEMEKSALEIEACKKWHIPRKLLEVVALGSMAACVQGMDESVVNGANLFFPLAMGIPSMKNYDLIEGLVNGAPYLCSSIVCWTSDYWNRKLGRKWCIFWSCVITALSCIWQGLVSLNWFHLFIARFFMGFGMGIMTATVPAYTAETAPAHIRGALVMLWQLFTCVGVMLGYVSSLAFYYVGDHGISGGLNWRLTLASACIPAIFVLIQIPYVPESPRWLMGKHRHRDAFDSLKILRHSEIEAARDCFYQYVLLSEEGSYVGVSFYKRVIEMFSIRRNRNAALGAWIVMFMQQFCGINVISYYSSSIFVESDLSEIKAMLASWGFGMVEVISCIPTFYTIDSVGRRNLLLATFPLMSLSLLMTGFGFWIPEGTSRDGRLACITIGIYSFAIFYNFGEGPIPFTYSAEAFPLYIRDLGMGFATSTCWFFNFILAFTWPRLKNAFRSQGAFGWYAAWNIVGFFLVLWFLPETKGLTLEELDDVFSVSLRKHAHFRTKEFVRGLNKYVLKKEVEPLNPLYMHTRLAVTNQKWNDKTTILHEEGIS
Description: initial extracellular alkalinization (H+ symport) in unbuffered yeast cell suspension, Michaelis-Menten fit on DhSgl1

[3] = substrate: OC[C@@H](O)[C@H](O)[C@H](O)[C@@H](O)CO; assay: as above; type: cell-based, Debaryomyces hansenii; details: pH 5, proton symport, one H+ per polyol assumed, maltose-grown S. cerevisiae cells
Description: (§1) initial extracellular alkalinization (H+ symport) in unbuffered yeast cell suspension, Michaelis-Menten fit on DhSyl1

[4] = substrate: OC[C@@H](O)C(O)[C@H](O)CO; assay: as above; type: cell-based, Debaryomyces hansenii; details: pH 5, proton symport, one H+ per polyol assumed, maltose-grown S. cerevisiae cells
Description: as §1

[5] = substrate: OC[C@@H](O)[C@@H](O)[C@H](O)[C@H](O)CO; assay: as above; type: cell-based, Debaryomyces hansenii; details: pH 5, proton symport, one H+ per polyol assumed, maltose-grown S. cerevisiae cells
Description: as §1

[6] = substrate: OC[C@@H](O)[C@@H](O)[C@@H](O)CO; assay: as above; type: cell-based, Debaryomyces hansenii; details: pH 5, proton symport, one H+ per polyol assumed, maltose-grown S. cerevisiae cells
Description: as §1

[7] = substrate: OC[C@@H](O)[C@@H](O)[C@H](O)[C@@H](O)CO; assay: as above; type: cell-based, Debaryomyces hansenii; details: pH 5, proton symport, one H+ per polyol assumed, maltose-grown S. cerevisiae cells
Description: as §1

[8] = substrate: OC[C@@H](O)C(O)[C@H](O)CO; assay: as above; type: cell-based, Debaryomyces hansenii; details: pH 5, proton symport, one H+ per polyol assumed, maltose-grown S. cerevisiae cells; remark: listed apart in the source
Description: (§2) initial extracellular alkalinization (H+ symport) in unbuffered yeast cell suspension, Michaelis-Menten fit on DhSyl2

[9] = substrate: OC[C@@H](O)[C@@H](O)[C@H](O)[C@H](O)CO; assay: as above; type: cell-based, Debaryomyces hansenii; details: pH 5, proton symport, one H+ per polyol assumed, maltose-grown S. cerevisiae cells; remark: listed apart in the source
Description: as §2

[10] = substrate: OC[C@@H](O)[C@@H](O)[C@@H](O)CO; assay: as above; type: cell-based, Debaryomyces hansenii; details: pH 5, proton symport, one H+ per polyol assumed, maltose-grown S. cerevisiae cells; remark: listed apart in the source
Description: as §2

[11] = substrate: OC[C@@H](O)[C@@H](O)[C@H](O)[C@@H](O)CO; assay: as above; type: cell-based, Debaryomyces hansenii; details: pH 5, proton symport, one H+ per polyol assumed, maltose-grown S. cerevisiae cells; remark: listed apart in the source
Description: as §2

[12] = substrate: O[C@H]1[C@H](O)[C@H](O)[C@@H](O)[C@H](O)[C@H]1O; assay: as above; type: cell-based, Debaryomyces hansenii; details: pH 5, proton symport, one H+ per polyol assumed, maltose-grown S. cerevisiae cells
Description: initial extracellular alkalinization (H+ symport) in unbuffered yeast cell suspension, Michaelis-Menten fit on DhSyi1

`OC[C@@H](O)[C@@H](O)[C@H](O)[C@H](O)CO` [D-Mannitol] was tested, and the “% reduction of sorbitol uptake at 20 mM” value [1] was 70%.

Work on `OC[C@@H](O)[C@H](O)[C@H](O)[C@@H](O)CO` [D-Galactitol] yielded a Km [2] of 1.93 ± 0.77 mM.

B1: DhSyl1 (Debaryomyces hansenii CBS767) (protein)
chain: T1 sequence (B5RT81 1-649)
notes: full-length ORF (649 aa) without stop, C-terminal GFP, plasmid pUG35, in S. cerevisiae YSH 1172 (strain MLY9); any CUG codon is read as Leu in the host
B1 showed a Km [3] of 12.33 ± 1.50 mM, a Km [4] of 0.96 ± 0.32 mM and a Km [5] of 0.30 ± 0.09 mM. It also gave a Km [6] of 11.44 ± 4.46 mM and a Km [7] of 11.51 ± 2.50 mM.

B2: DhSyl2 (Debaryomyces hansenii CBS767) (protein)
chain: MPSETNPEKPVALRSDNPHEENGLFEHSSNSSFNEKRRVSELESIHSKIAEPGQGEKGNILSQYSEKQVMQMGRNYALKYDLDPDLFARAAALARTPDDFNAMPFITEEEKQALHKEHTKKWHIPSKLIQVIALGSMAAAVQGMDESVINGALLFYPNYMGVGKGEYNRFGYDTDMIEGLINGAPYLCASCIACWMSDLWNRHLGRKWTIFWTCLISALTCFWQGFTNTWYHLFIARFMLGFGIGIKSATVPAYAAECTPKQIRGALVMLWQFFTAVGIMFGYVACLAFYHVGDHGIGGGLNWRLMLGSACIPAIIVLFQIPFVPESPRWLMGKDRHKDSYDSLCQLRLDKIAAARDTFYQYVLLQEEASYQGIPTWKRLVEMFTIRRNRNGALGAWIVMFMQQFCGINAIVYYNSTIFIQGGFTEVDALTASWGFGMVNFLFAIPTFYTIDTFGRRNLLLFTFPLMALFLIWTGLGFVAEDGTKTQTGIVASGVYIFSAIYSAGEGPVPFTYSAEAFPLYIRDIGMGFATATCWFFNFILALTWPKLVSSFGRTGAFMWYAAWNIAGFFMVLWFLPETKGLTLEELDEVFSVSTRKHAIYQTKSILNSFQRVVLRRHIDPLPPLYEHQKRLAVTNPDWNNKTETAHIE
notes: full-length ORF (649 aa) without stop, C-terminal GFP, plasmid pUG35, in S. cerevisiae YSH 1172 (strain MLY12); any CUG codon is read as Leu in the host
For B2, the Km [8] was 0.46 ± 0.21 mM, the Km [9] was 0.93 ± 0.16 mM and the Km [10] was 18.31 ± 3.23 mM. It also gave a Km [11] of 13.82 ± 2.12 mM.

B3: DhSyi1 (Debaryomyces hansenii CBS767) (protein)
chain: MATEDKELGVVITDVSKLSEKIEEQNNIISKGGSVDDYLYEKRPWWKVNYLVRLNFCIFLITLSSTNNGYDGSMLNGLQSVSYWPEKMGNPQGSVLGALSNGNVFGVVLSFVCASWLADKFGRWRCIFVGQTITILGSILQGVSTNYGFFLASRIILGFGVGIAGVSSPSLISELAYPTHRATATTFYNVCWYLGAIIAAWVTYGTLNIENDYSWRIPSYLQAALPCLQIAFFWMVPESPRYLINKDRISDAEKVLRKFHAGGETHERANDLVSFEIEEIQAALEIEKLSSNSRYSDFITMPTFRKRLFLAVFVAVIMQLSGNGLVSYYLNKVLNSIGITDPHEQLKINGCLMVYNLVISSVVASVAGRFKRRSMFLICTILMLVFYVIWTILSAINQQRNFEQKSLGNGVIAMIFFYYLAYDIGANGLPFLYITEIMPYSHRAKGMNIFTVSQNIIIIFNGFVNPIAMDAIEWKYYIVYCCILAVEVITVLFTFVETSAYTLEEVAKVFGDDPGQTLIHLSSAPPKPEVGHIETV
notes: full-length ORF (536 aa) without stop, C-terminal GFP, plasmid pUG35, in S. cerevisiae YSH 1172 (strain MLY23); any CUG codon is read as Leu in the host
With B3 the Km [12] was 18.64 ± 9.23 mM.
